The record followed here is the supplement of paper PMC10126150.

± gives the standard deviation of the averaged measurements.
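Further: ATP exposure 15 min at 22 °C before imaging.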

This data set deals with ATP. As to the kind of experiment: switch fluorescence ratio, 500 uM ATP over buffer (Cy3 cluster intensity, sum of 5 cycles each) (fold (ratio)); higher = stronger signal-on switching upon ATP binding; sequences stand for … in TCGTCGGCAGCGTCAGATGTGTATAAGAGACAGTTTTTTTTTTTTTTTTTTTTTTTTT…TC. To be noted: aptamer strand: ATP DNA aptamer (quencher-CACCTGGGGGAGTATTGCGGAGGAAGG + anchor), 100 nM annealed; ATP concentration: 500 uM. The method, boiled down: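 The quencher-labelled ATP aptamer, at 100 nM, was annealed to Cy3-labelled switching-strand clusters on a modified Illumina MiSeq flow-cell. The clusters were imaged in selection buffer, then after 15 min with 500 uM ATP at 22 °C, and this buffer/ATP cycle ran five times with NaOH stripping and re-annealing between runs. Per-cluster fluorescence ratios, summed target-cycle over summed buffer-cycle Cy3 intensity, were averaged per switch-domain sequence. Clusters outside 100-1000 RFU were excluded.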
On to TAGTAAATGG, for which the switch fluorescence ratio came to 0.999 ± 0.017.
For TTTACTGGTG, the switch fluorescence ratio amounted to 1.13 ± 0.012.
Consider ATCGGGGTC, for which the switch fluorescence ratio worked out at 0.983 ± 0.027.
Take TTGTTTTCAT: the switch fluorescence ratio was determined as 1.04 ± 0.018.
On to AGATAGGAGT, for which the switch fluorescence ratio came to 1.02 ± 0.019.
For AGGTAGGCGC, the switch fluorescence ratio was 0.98 ± 0.041.
Turning to CATGAAGATG, the switch fluorescence ratio amounted to 0.98 ± 0.012.
Take CGTCAGAGCG: the switch fluorescence ratio stood at 0.9802 ± 0.008.
In the case of CTTGGTTGCT, the switch fluorescence ratio is 0.997 ± 0.032.
With TATGAGTATT, the switch fluorescence ratio came out at 0.9875 ± 0.0026.
Consider TCGATCTGTG, for which the switch fluorescence ratio was found to be 0.99652 ± 0.00045.
The same measure for CCGTATTGGT: 1.03 ± 0.039; for TTGGTTTTCG: 0.973 ± 0.026.
With GATTTAATTT, the switch fluorescence ratio stood at 1.001 ± 0.0063.
For CCAAAACAGC, the switch fluorescence ratio was 1.028 ± 0.0022.
Take CATGCTTTTG: the switch fluorescence ratio turned out to be 1.013 ± 0.0021.
Under ACGGTTTCTT stands 0.9771 ± 0.0039.
Regarding TGGCGGACGT, the switch fluorescence ratio is 1 ± 0.0081.
For the sequence GGTATAAGAT, the switch fluorescence ratio is 1.01 ± 0.013.
On to GGGAAGAAAT, for which the switch fluorescence ratio was determined as 1 ± 0.037.
On to GAATTGGGAG, for which the switch fluorescence ratio is 0.998 ± 0.02.
Turning to AAAAGTTTGT, the switch fluorescence ratio was 1 ± 0.032.
The same measure for TGGGTGAGAT: 1.01 ± 0.032; for TGCGATTGTT: 1.01 ± 0.056; for GGACGGTAGG: 0.979 ± 0.011.
In the case of ACCGGGGTTT, the switch fluorescence ratio was found to be 1 ± 0.051.
For the sequence TAGTTCGGGG, the switch fluorescence ratio was 1.01 ± 0.024.
For the sequence TTTTATGGAC, the switch fluorescence ratio amounted to 1.03 ± 0.03.
The same measure for TTTATGGGAT: 0.986 ± 0.032; for CATCGGGACG: 1.04 ± 0.053.
The same measure for ATGGGCAGGT: 0.985 ± 0.02.
As for GTATTGAGAT, the switch fluorescence ratio turned out to be 0.973 ± 0.063.
As for GGTTACTAAG, the switch fluorescence ratio was found to be 1.01 ± 0.017.
For TATTTGGGAC, the switch fluorescence ratio was found to be 1.02 ± 0.025.
As to TTTTATGTGT, the switch fluorescence ratio is 0.992 ± 0.035.
Turning to TAGTTTTAT, the switch fluorescence ratio was 0.973 ± 0.016.
On to TTCATACGGG, for which the switch fluorescence ratio is 1.03 ± 0.04.
As to GGCCACGGGG, the switch fluorescence ratio is 0.991 ± 0.0054.
Regarding ATGAGAAAAG, the switch fluorescence ratio is 0.991 ± 0.0095.
For AGGGGTGCTG, the switch fluorescence ratio is 0.975 ± 0.039.
In the case of ATAGAATAGG, the switch fluorescence ratio is 0.9867 ± 0.0065.
For TTTAGTACCT, the switch fluorescence ratio turned out to be 1.2 ± 0.044.
As to AGATGATTGG, the switch fluorescence ratio came to 0.985 ± 0.023.
With CGGGTCGCGG, the switch fluorescence ratio came out at 0.992 ± 0.031.
On to GTGTTACTGT, for which the switch fluorescence ratio was 0.959 ± 0.026.
Regarding TATAATTAAT, the switch fluorescence ratio stood at 0.982 ± 0.029.
On to TTATAAGTGT, for which the switch fluorescence ratio is 0.963 ± 0.035.
With CTATTCTAGG, the switch fluorescence ratio was 1.019 ± 0.0083.
As for TGATCACTAT, the switch fluorescence ratio stood at 1.007 ± 0.0076.
Regarding CATGCATTTT, the switch fluorescence ratio turned out to be 1.09 ± 0.079.
GGGAAAAGA: the switch fluorescence ratio stood at 1.04 ± 0.018.
Under CTTGGTGGTG stands 0.995 ± 0.019.
With TGAAGTTTTG, the switch fluorescence ratio is 1.02 ± 0.027.
Turning to AATTTTTTAA, the switch fluorescence ratio is 0.985 ± 0.019.
The same measure for GGCAGAAAAA: 0.9949 ± 0.0018; for GGATTTGGCC: 1 ± 0.043; for GGCCCCTTAG: 1.02 ± 0.03.
Take ATGGCAACAT: the switch fluorescence ratio was 1.01 ± 0.041.
For the sequence AAAGGTTAAG, the switch fluorescence ratio turned out to be 0.991 ± 0.015.
In the case of TGACGGGGGA, the switch fluorescence ratio was 0.986 ± 0.021.
Under CAGATAGGTG stands 1.15 ± 0.089; under GAGCTTTGAT, 0.996 ± 0.024; under CACGTTGTAT, 1.32 ± 0.42.
The same measure for ACATATCCGT: 1.01 ± 0.021; for ATTTGCGATT: 1.03 ± 0.019; for AAATTAATCC: 1.04 ± 0.038.
With GAATGGGTAG, the switch fluorescence ratio was determined as 0.9961 ± 0.0042.
For TTCACGGTTG, the switch fluorescence ratio was determined as 1.04 ± 0.061.
For the sequence TTTTGTGATT, the switch fluorescence ratio came to 0.984 ± 0.013.
Consider TCTGGGGCGC, for which the switch fluorescence ratio is 0.984 ± 0.015.
As to TTTGATGTTG, the switch fluorescence ratio was 0.976 ± 0.033.
Under ATTGCGGGGG stands 0.994 ± 0.019; under TAGTGTGGG, 0.99 ± 0.024.
Take TTGTTTACTT: the switch fluorescence ratio turned out to be 1.04 ± 0.061.
Turning to TTTTACGGGC, the switch fluorescence ratio amounted to 1.018 ± 0.0039.
Under GGTCTTTTGG stands 0.981 ± 0.013; under TAGGGGAAGA, 1.003 ± 0.0076; under AACGATAAAT, 1.03 ± 0.014.
